Like-named read-outs stand apart in the source and are kept apart here.
T1: human IL-2Rβ (human, UniProt P14784 27-240, limits assumed)
T1 construct: recombinant protein, coated or immobilised; also called hu IL-2R; IL-2R beta
T1 sequence: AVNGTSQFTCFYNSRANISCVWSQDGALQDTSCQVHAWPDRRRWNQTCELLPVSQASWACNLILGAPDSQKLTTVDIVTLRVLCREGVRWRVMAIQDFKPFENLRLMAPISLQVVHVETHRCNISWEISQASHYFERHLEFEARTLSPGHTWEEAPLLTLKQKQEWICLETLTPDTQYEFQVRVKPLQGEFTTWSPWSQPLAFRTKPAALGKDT

T2: human IL-2 receptor (IL-2Rα/IL-2Rβ/γc) (human, UniProt P01589 22-272; P14784 27-551; P31785 23-369)
T2 sequence 1: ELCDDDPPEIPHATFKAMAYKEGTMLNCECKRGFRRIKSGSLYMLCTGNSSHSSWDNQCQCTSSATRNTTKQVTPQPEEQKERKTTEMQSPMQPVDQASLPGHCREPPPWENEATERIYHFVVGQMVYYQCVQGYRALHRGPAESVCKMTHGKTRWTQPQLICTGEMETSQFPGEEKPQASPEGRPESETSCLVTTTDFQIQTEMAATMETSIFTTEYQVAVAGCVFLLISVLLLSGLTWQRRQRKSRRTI
T2 sequence 2: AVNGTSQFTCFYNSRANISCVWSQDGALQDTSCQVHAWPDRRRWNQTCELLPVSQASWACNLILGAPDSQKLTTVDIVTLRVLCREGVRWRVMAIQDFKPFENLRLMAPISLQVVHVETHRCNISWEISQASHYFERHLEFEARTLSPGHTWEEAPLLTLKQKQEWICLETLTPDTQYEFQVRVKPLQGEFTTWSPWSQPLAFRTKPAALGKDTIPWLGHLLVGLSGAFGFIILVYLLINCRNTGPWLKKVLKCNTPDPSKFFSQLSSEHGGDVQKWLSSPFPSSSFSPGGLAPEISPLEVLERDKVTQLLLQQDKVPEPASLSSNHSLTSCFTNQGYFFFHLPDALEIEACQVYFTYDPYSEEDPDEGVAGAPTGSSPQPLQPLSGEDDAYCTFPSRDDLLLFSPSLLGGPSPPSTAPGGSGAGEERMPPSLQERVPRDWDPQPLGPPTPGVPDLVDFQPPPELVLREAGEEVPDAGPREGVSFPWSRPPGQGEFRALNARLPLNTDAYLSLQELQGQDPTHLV
T2 sequence 3: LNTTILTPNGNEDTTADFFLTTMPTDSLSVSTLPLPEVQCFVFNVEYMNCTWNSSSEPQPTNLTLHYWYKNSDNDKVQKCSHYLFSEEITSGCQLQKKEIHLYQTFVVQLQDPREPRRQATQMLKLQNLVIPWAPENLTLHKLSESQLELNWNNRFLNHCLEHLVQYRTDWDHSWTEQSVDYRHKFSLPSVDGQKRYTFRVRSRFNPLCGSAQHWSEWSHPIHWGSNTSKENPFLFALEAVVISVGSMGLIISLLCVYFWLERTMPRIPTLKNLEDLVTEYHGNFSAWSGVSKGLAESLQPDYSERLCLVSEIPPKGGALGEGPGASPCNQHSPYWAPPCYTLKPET


Key:
[1] = biological target: T1, human IL-2Rβ; assay: SPR, P.E. off-rate
Experimental: SPR was performed to determine dissociation rates using Biacore 3000 instrument (GE Healthcare). Briefly, human and mouse IL-2R proteins were immobilized on carboxylmethyl dextran sensor chip (CM5) at approximately 2500 RUs using amine coupling in acetate buffer (GE Healthcare). The VHH-containing P.E. were loaded with a flow rate of 30 uL/min and the off-rates were measured over a 120s period.

[2] = biological target: T1, human IL-2Rβ; assay: P.E. ELISA, coated protein
Experimental: In a binding ELISA, human or mouse IL-2Rα, IL-2Rβ and IL-2Rγ proteins were coated directly on maxisorp microtiter plates overnight at 4° C. Free binding sites were blocked using 4% Marvel in PBS for 1 hour. Next, 1:5 dilution of P.E. in 1% Marvel/PBS were added to wells and incubated for 1 hour. […] Binding specificity was determined based on O.D. at 450 nm values compared to negative controls.

[3] = biological target: T2, human IL-2 receptor (IL-2Rα/IL-2Rβ/γc); assay: cell-based or functional assay
[4] = biological target: T2, human IL-2 receptor (IL-2Rα/IL-2Rβ/γc); assay: cell-based or functional assay; remark: listed apart in the source

| koff [1] | P.E. binding ELISA OD [2] | Binder | other results |
| --- | --- | --- | --- |
| 0.000169 s⁻¹ | 0.242 OD450 nm | FJ1427_P035MP02E03 (VHH, soluble VHH in periplasmic extract; also called clone nr) VHH: EVQLVESGGGSVQTGGSLRLSCVVSGSHFISDVMGWYRQVPGKQRELVADMADGGSVKYGDSVKGRFTILRDSVKNTVTLQMSSLNPEDTGVYYCKAGLWITGRHFDYWGQGTQVTVTS |  |
| 0.000789 s⁻¹ | 0.7 OD450 nm | FJ1427 P035MP02C01 (VHH, soluble VHH in periplasmic extract; also called clone nr; 99) VHH: QVQLVESGGGLVQPGGSLGLSCAASGFTFDNYAMSWVRQAPGKGLEWVSSITGAGRGTHYADSVKGRFTISRDNAKNTLYLQMNSLKPEDTAVYYCAKYSSSTYYPPTPARGTDYRGPGTQVTVSS |  |
| 0.00169 s⁻¹ | 0.581 OD450 nm | FJ1427 P035MP02E06 (VHH, soluble VHH in periplasmic extract; also called 15-MP02E06; clone nr) VHH: QVQLVESGGGSVQPGGSLRLSCAASGFTFSNYAMSWVRQAPGKGLEWVASITGFGRGTDYADSVKGRFTISRDNAEDTLYLQMNSLKPEDTAVYYCAKYSSSTYYPPTPARGRDYRGQGTQVTVSS |  |
| 0.000571 s⁻¹ | 0.207 OD450 nm | FJ1427_P035MP02A03 (VHH, soluble VHH in periplasmic extract; also called clone nr) VHH: QVQLVESGGGLVQPGGSLRLSCAASGFTFSNYAMSWVRQAPGKGLEWVSSITGAGRGTYYAESVKGRFTISRDNDKNTLYLQMNSLKPEDTAVYYCAKYDSSTFYPPTPARGIADRGQGTRVTVSS |  |
| 0.00217 s⁻¹ | 0.351 OD450 nm | FJ1427 P035MP02C06 (VHH, soluble VHH in periplasmic extract; also called clone nr) VHH: QLQLVESGGGLVQPGGSLELSCAASGFTFSNYAMSWVRQAPGKGLEWVSSITGFGRGTDYADSVKGRFTISRDNAKNTLYLQMNSLKPEDTAVYYCARYSSSTYYPPTPARGRDYRGQGTQVTVSS |  |
| 0.00255 s⁻¹ | 0.424 OD450 nm | FJ1427_P035MP02C04 (VHH, soluble VHH in periplasmic extract; also called clone nr) VHH: QVQLVESGGGLVQPGGSLELSCAASGFTFSNYAMSWVRQAPGKGLEWVSSITGFGRGTDYADSVKGRFTISRDNDKNTLYLQMNSLKPEDTAVYYCARYSSSTYYPPTPARGRDYRGQGTQVTVSS |  |
| 0.0046 s⁻¹ | 0.125 OD450 nm | FJ1427_P035MP02B06 (VHH, soluble VHH in periplasmic extract; also called clone nr) VHH: QVQLVESGGGLVQPGESLGLSCAASGFTFSNYAMSWVRQAPGKGLEWVSSITGAGRGTDYADSVKGRFTISRDNAKNTLYLQMNSLKPEDTAVYYCAKYSSGTYYPPTPVRGTDYRGQGTQVTVSS |  |
| 0.00262 s⁻¹ | 0.223 OD450 nm | FJ1427_P035MP02A02 (VHH, soluble VHH in periplasmic extract; also called clone nr) VHH: QVQLVESGGGLVQPGGSLRLSCAASGFTFDNYAMTWVRQAPGKGLEWVSSITGAGRGTHYADSVKGRFTISRDNAKNTLYLQVNSLKPEDTAVYYCARYSSSTYYPTTPVRGTDYRGQGTQVTVSS |  |
| 0.00279 s⁻¹ | 0.118 OD450 nm | FJ1427 P035MP02D05 (VHH, soluble VHH in periplasmic extract; also called clone nr) VHH: QVQLVESGGGLVQPGESLGLSCAASGFTFSNYAMSWVRQAPGKGLEWVSSITGAGRGTDYADSVKGRFTISRDNAKNTLYLQMNSLKPEDTAVYYCAKYSSGTYYPPTPVRGTDYRGQGTQVTVSS |  |
|  |  | DC00068 (other) chain 1: EVQLVESGGGLVQTGGSLRLSCAASGGTFSRDAMAWFRQVPGKEREFVALISWSGATTNYADSVKGRFAISRDNGKNTVYLQMNRLKPADTAIYYCAADRRPMGSRSYFEPTEYDDWGQGTQVTVSSGGGGSGGGGSGGGGSQVQLVESGGGLVQPGGSLRLSCATSGFTFRNNFMSWVRQAPGKGLEWVSTISYGGESTTYAESVKGRFTISRDNAKNTLYLQMNNLKPEDTAVYYCAKATSYDSIRSGSRGQGTQVTVSSDKTHTCPPCPAPEAAGGPSVFLFPPKPKDTLMISRTPEVTCVVVDVSHEDPEVKFNWYVDGVEVHNAKTKPREEQYNSTYRVVSVLTVLHQDWLNGKEYKCKVSNKALGAPIEKTISKAKGQPREPQVYTLPPSRDELTKNQVSLTCLVKGFYPSDIAVEWESNGQPENNYKTTPPVLDSDGSFLLYSKLTVDKSRWQQGNVFSCSVMHEALHNHYTQKSLSLSPGK chain 2: QVQLVESGGGLVQAGGSLTLSCAAPGRTFGTDVVGWFRQAPGKEREFVASISRSGDGIYYDDSVKGRFTISRNNAWNTVNLQMNSLKVEDTAVYYCAAGDGWSTYDYWGQGTQVTVSSGGGGSGGGGSGGGGSQVQLVESGGGLVQPGGSLRLSCATSGFTFRNNFMSWVRQAPGKGLEWVSTISYGGESTTYAESVKGRFTISRDNAKNTLYLQMNNLKPEDTAVYYCAKATSYDSIRSGSRGQGTQVTVSSGGGGSGGGGSGGGGSEVQLVESGGGLVQTGGSLRLSCAASGGTFSRDAMAWFRQVPGKEREFVALISWSGATTNYADSVKGRFAISRDNGKNTVYLQMNRLKPADTAIYYCAADRRPMGSRSYFEPTEYDDWGQGTQVTVSSGGGGSGGGGSGGGGSDKTHTCPPCPAPEAAGGPSVFLFPPKPKDTLMISRTPEVTCVVVDVSHEDPEVKFNWYVDGVEVHNAKTKPREEQYNSTYRVVSVLTVLHQDWLNGKEYKCKVSNKALGAPIEKTISKAKGQPREPQVYTLPPSRDELTKNQVSLTCLVKGFYPSDIAVEWESNGQPENNYKTTPPVLDSDGSFFLYSRLTVDKSRWQQGNVFSCSVMHEALHNHYTQKSLSLSPGK | EC50 (nM) pSTAT5, NK, human PBMCs [3]: 0.0936 nM; EC50 (nM) pSTAT5, Treg, human PBMCs [3]: 0.00189 nM; Fold Max signal (% pSTAT5+) Treg/NK [3]: 6 fold; Max signal (% pSTAT5+), NK [3]: 14 % pSTAT5+; Max signal (% pSTAT5+), Treg [3]: 83 % pSTAT5+; fold EC50 NK/Treg [3]: 49 fold; EC50 (nM) pSTAT5, NK, human PBMCs [4]: 0.00127 nM; EC50 (nM) pSTAT5, Treg, human PBMCs [4]: 0.425 pM; Fold Max signal (% pSTAT5+) Treg/NK [4]: 9 fold; Max signal (% pSTAT5+), NK [4]: 3.39 % pSTAT5+; Max signal (% pSTAT5+), Treg [4]: 30 % pSTAT5+; fold EC50 NK/Treg [4]: 3 fold |
| 0.000828 s⁻¹ | 0.212 OD450 nm | FJ1427_P035MP02F03 (VHH, soluble VHH in periplasmic extract; also called clone nr) VHH: EVQLVESGGGLVQAGGSLRLSCAASGGTFSSYAMGWFRQAPGKEREFVAATTRGGGRTMYAVSTEGRFTCSRDNAKNTVYLLMNSLKPEDTAVYYCAAMTSYYSGTYYPDSSDFDIWGQGTQVTVSS |  |
| 0.00051 s⁻¹ | 0.376 OD450 nm | FJ1427 P035MP02H04 (VHH, soluble VHH in periplasmic extract; also called clone nr) VHH: QVQLVESGGGLVQAGDSLRLSCATSGLTFSSYALGWFRQAPGKKREFVAATTRGGGRTMYAVSTEGRFTCSRDNDKNTVYLLMNSLKPKDTAVYYCAAMTSYYSGTYYPDSSDFDIWGQGTQVTVSS |  |
| 0.000226 s⁻¹ | 0.286 OD450 nm | FJ1427_P035MP02D03 (VHH, soluble VHH in periplasmic extract; also called clone nr) VHH: QVQLVESGGGLVQAGGPLRLSCAASGGTFSSYAMGWFRQAPGKEREFVAATTRGGGRTMYAVSTEGRFTCSRDNAKNTVYLLMNSLKPEDTAVYYCAAMTSYYSGTYYPDSSDFDIWGQGTQVTVSS |  |
| 0.000484 s⁻¹ | 2.55 OD450 nm | FJ1427_P035MP02A06 (VHH, soluble VHH in periplasmic extract; also called clone nr) VHH: QVQLQESGGGLVQAGGSLRLSCAASGGTFSSYAMGWFRQAPGKEREFVAATTRGGGRTMYAVSTEGRFTCSRDNDKNTVYLLMNSLKPKDTAVYYCAAMTSYYSGTYYPDSSDFDIWGQGTQVTVSS |  |
| 0.000716 s⁻¹ | 0.255 OD450 nm | FJ1427_P035MP02E04 (VHH, soluble VHH in periplasmic extract; also called clone nr) VHH: EVQLVESGGGLVQAGGSLRLSCAASGGTFSSYAMGWFRQAPGKEREFVAATTRGGGRTMYAVSTEGRFTCSRDNAKNTVYLQMNSLKPKDTAIYYCAAMTSYYSGTYYPDSSDFDIWGQGTQVTVSS |  |
| 0.000449 s⁻¹ | 0.375 OD450 nm | FJ1427_P035MP02B04 (VHH, soluble VHH in periplasmic extract; also called clone nr) VHH: EVQLVESGGGLVQAGGSLGLSCAASGGTFSSYAMGWFRQAPGKEREFVAATTRGGGRTMYAVSTEGRFTCSRDNAKNTVYLQMNSLKPKDTAIYYCAAMTSYYSGTYYPDSSDFDIWGQGTQVTVSS |  |
